# Data from patent US20220409696A1, “Heparin-Associated Polypeptides and Uses Thereof” (Juvena Therapeutics, Inc., priority 2021, published 2022).
# B1: BMP7: factor BMP7 added at 50 ng/mL to DM1 human myoblasts (protein, UniProt P18075 293-431, looked up)
# Bone morphogenetic protein 7: STGSKQRSQNRSKTPKNQEALRMANVAENSSSDQRQACKKHELYVSFRDLGWQDWIIAPEGYAAYYCEGECAFPLNSYMNATNHAIVQTLVHFINPETVPKPCCAPTQLNAISVLYFDDSSNVILKKYRNMVVRACGCH
# Tested on: DM1 human myoblast
# Experiment: Gene expression fold change in DM1 human myoblast
# Type: cell-based
# Conditions: 48 h; BMP7 50 ng/mL, Butyrate 100 nM, IGF2 200 ng/mL
# Description: Myoblasts were cultured 48 h in the presence of factors (BMP7 50 ng/mL, Butyrate 100 nM, IGF2 200 ng/mL).
# Myoblasts were cultured 96 h in the presence of factors (IGF2 200 ng/mL). […] Myoblasts were cultured 48 h in the presence of factors (IGF2 200 ng/mL).
# RNA was isolated from each well (RNeasy Mini Kit, Qiagen) and cDNA was obtained by reverse-transcription (High Capacity Reverse Transcription Kit, Thermo Fisher Scientific). Real-time quantitative PCR was performed using QuantStudio3 (Thermo Fisher).
# IGF2 was tested individually for its ability to promote proliferation and/or fusion of human muscle progenitor cells from an individual with myotonic dystrophy type 1 (hMD)—a muscular dystrophy caused by mutations in the DMPK1 gene. The effect of IGF2 on myogenic activity was assayed in biological triplicate across a range of concentrations centered around expected physiological levels by adding each factor to hMD myoblasts for 72 hours with daily media changes (DMEM+2% horse serum) and a second pulse of factors at the first media change. After 72 or 96 hours, cells were pulsed for 2-5 hours with EdU (30 uM), ethanol fixed, stained with Hoescht 3342, immunostained for proliferation—as measured by the percent of cells staining positive for EdU (% EdU)-, and immunostained for differentiation—as measured by the increase in cellular area staining positive for embryonic myosin heavy chain (% eMyHC) relative to the negative controls, which received media and vehicle only. Wells were imaged on a Keyence BZ-100 at 4×, the images quantified in Cell Profiler, and the statistics were computed in R. Additionally, RNA was extracted from myoblast and select transcript abundances quantified by qPCR.
molecule,measurement,value
B1,MYF5 myogenic gene expression fold change compared to FM (vehicle),0.709
same,MYODI myogenic gene expression fold change compared to FM (vehicle),0.709
same,MYOG myogenic gene expression fold change compared to FM (vehicle),0.361
